Measured values taken from patent US20180140578A1, “METHODS AND COMPOSITIONS FOR THE DIAGNOSIS AND SELECTIVE TREATMENT OF CANCER” (Board of Regents of the University of Texas System, priority 2016, published 2018).

Key:
RBM39-3xFLAG (human) [1] = molecular target: RBM39-3xFLAG (human) (UniProt Q14498); assay: anti-FLAG IP of RBM39-3xFLAG from H1155 cells treated with DMSO (no indisulam), LC-MS/MS
RBM39-3xFLAG (human) [2] = molecular target: RBM39-3xFLAG (human) (UniProt Q14498); assay: anti-FLAG IP of RBM39-3xFLAG from H1155 cells treated with 10 µM indisulam, LC-MS/MS
DCAF15-3xFLAG (human) = DCAF15-3xFLAG (human) (UniProt Q66K64); assay: pull-down of 100 nM RBM39Δ150 by DCAF15-3xFLAG on anti-FLAG beads with rising indisulam, western blot (FIG. 4C)
DCAF15-3xFLAG (human), sequence (Q66K64 whole entry): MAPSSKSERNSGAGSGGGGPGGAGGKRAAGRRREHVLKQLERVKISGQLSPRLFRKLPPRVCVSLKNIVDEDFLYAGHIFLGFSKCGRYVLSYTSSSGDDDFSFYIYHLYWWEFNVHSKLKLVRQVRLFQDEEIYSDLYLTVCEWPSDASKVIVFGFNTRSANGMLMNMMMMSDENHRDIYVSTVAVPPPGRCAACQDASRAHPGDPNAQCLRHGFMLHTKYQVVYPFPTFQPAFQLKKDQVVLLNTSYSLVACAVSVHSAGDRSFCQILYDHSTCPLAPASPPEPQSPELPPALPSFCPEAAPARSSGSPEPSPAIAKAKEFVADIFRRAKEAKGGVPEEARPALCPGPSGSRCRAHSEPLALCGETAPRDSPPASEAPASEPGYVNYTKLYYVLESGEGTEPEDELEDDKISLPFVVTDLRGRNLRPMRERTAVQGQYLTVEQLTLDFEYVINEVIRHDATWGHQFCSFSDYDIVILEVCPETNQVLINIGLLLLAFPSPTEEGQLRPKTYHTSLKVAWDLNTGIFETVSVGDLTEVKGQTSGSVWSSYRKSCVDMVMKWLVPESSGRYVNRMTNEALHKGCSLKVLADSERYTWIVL

RBM39-3xFLAG (human), sequence (Q14498 whole entry): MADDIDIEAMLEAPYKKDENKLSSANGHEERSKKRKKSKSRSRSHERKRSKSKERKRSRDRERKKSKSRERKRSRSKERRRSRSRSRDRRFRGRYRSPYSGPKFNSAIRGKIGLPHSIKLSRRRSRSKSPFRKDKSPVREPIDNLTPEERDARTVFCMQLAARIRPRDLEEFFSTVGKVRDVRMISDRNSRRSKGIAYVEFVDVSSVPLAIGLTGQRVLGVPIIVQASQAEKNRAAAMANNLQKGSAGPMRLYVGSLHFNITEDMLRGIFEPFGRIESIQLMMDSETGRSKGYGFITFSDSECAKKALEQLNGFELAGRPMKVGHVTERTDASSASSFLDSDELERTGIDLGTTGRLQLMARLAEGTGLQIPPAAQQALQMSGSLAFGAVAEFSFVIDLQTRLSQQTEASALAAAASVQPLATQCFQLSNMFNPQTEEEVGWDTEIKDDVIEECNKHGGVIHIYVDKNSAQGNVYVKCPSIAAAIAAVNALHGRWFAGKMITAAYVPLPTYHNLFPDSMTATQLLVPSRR

Work on TPI1 (from UniProt P60174 2-249) yielded a DMSO total (peptide count) (RBM39-3xFLAG (human) [1]) of 0 peptides, a DMSO unique (peptide count) (RBM39-3xFLAG (human) [1]) of 0 peptides and an indisulam total (peptide count) (RBM39-3xFLAG (human) [2]) of 4 peptides. It also gave an indisulam unique (peptide count) (RBM39-3xFLAG (human) [2]) of 4 peptides.
For PDIA3 (from UniProt P30101 25-505), the DMSO total (peptide count) (RBM39-3xFLAG (human) [1]) was 0 peptides, the DMSO unique (peptide count) (RBM39-3xFLAG (human) [1]) was 0 peptides and the indisulam total (peptide count) (RBM39-3xFLAG (human) [2]) was 4 peptides. It also gave an indisulam unique (peptide count) (RBM39-3xFLAG (human) [2]) of 4 peptides.
PSMD11 (from UniProt O00231 2-422) gave a DMSO total (peptide count) (RBM39-3xFLAG (human) [1]) of 0 peptides, a DMSO unique (peptide count) (RBM39-3xFLAG (human) [1]) of 0 peptides and an indisulam total (peptide count) (RBM39-3xFLAG (human) [2]) of 5 peptides. The indisulam unique (peptide count) (RBM39-3xFLAG (human) [2]) was 5 peptides.
Work on RBM39Δ150 (from UniProt Q14498 151-530) yielded an indisulam concentration at which the complex was apparent (DCAF15-3xFLAG (human)) of 0.1 µM.
Substance TPM3 (from UniProt P06753 2-285) has a DMSO total (peptide count) (RBM39-3xFLAG (human) [1]) of 0 peptides, a DMSO unique (peptide count) (RBM39-3xFLAG (human) [1]) of 0 peptides and an indisulam total (peptide count) (RBM39-3xFLAG (human) [2]) of 4 peptides. The indisulam unique (peptide count) (RBM39-3xFLAG (human) [2]) was 4 peptides.
FUS (from UniProt P35637 1-526) showed a DMSO total (peptide count) (RBM39-3xFLAG (human) [1]) of 0 peptides, a DMSO unique (peptide count) (RBM39-3xFLAG (human) [1]) of 0 peptides and an indisulam total (peptide count) (RBM39-3xFLAG (human) [2]) of 6 peptides. It also gave an indisulam unique (peptide count) (RBM39-3xFLAG (human) [2]) of 6 peptides.
Work on DDA1 (from UniProt Q9BW61 2-102) yielded a DMSO total (peptide count) (RBM39-3xFLAG (human) [1]) of 0 peptides, a DMSO unique (peptide count) (RBM39-3xFLAG (human) [1]) of 0 peptides and an indisulam total (peptide count) (RBM39-3xFLAG (human) [2]) of 4 peptides. For the same substance, the indisulam unique (peptide count) (RBM39-3xFLAG (human) [2]) was 4 peptides.
Work on YWHAB (from UniProt P31946 1-246) yielded a DMSO total (peptide count) (RBM39-3xFLAG (human) [1]) of 0 peptides, a DMSO unique (peptide count) (RBM39-3xFLAG (human) [1]) of 0 peptides and an indisulam total (peptide count) (RBM39-3xFLAG (human) [2]) of 5 peptides. The indisulam unique (peptide count) (RBM39-3xFLAG (human) [2]) was 4 peptides.
For “DKFZp686J1372 (from UniProt Q5HYB6 1-232)”, the DMSO total (peptide count) (RBM39-3xFLAG (human) [1]) was 0 peptides, the DMSO unique (peptide count) (RBM39-3xFLAG (human) [1]) was 0 peptides and the indisulam total (peptide count) (RBM39-3xFLAG (human) [2]) was 4 peptides. For the same substance, the indisulam unique (peptide count) (RBM39-3xFLAG (human) [2]) was 4 peptides.
With DDX46 (from UniProt Q7L014 2-1031) the DMSO total (peptide count) (RBM39-3xFLAG (human) [1]) was 0 peptides, the DMSO unique (peptide count) (RBM39-3xFLAG (human) [1]) was 0 peptides and the indisulam total (peptide count) (RBM39-3xFLAG (human) [2]) was 6 peptides. For the same substance, the indisulam unique (peptide count) (RBM39-3xFLAG (human) [2]) was 6 peptides.
Work on HDX (from UniProt Q7Z353 1-690) yielded a DMSO total (peptide count) (RBM39-3xFLAG (human) [1]) of 0 peptides, a DMSO unique (peptide count) (RBM39-3xFLAG (human) [1]) of 0 peptides and an indisulam total (peptide count) (RBM39-3xFLAG (human) [2]) of 15 peptides. It also gave an indisulam unique (peptide count) (RBM39-3xFLAG (human) [2]) of 14 peptides.
ANXA2 (from UniProt P07355 2-339) was tested, and the DMSO total (peptide count) (RBM39-3xFLAG (human) [1]) was 1 peptides, the DMSO unique (peptide count) (RBM39-3xFLAG (human) [1]) was 1 peptides and the indisulam total (peptide count) (RBM39-3xFLAG (human) [2]) was 11 peptides. It also gave an indisulam unique (peptide count) (RBM39-3xFLAG (human) [2]) of 10 peptides.
Work on DDB1 (from UniProt Q16531 2-1140) yielded a DMSO total (peptide count) (RBM39-3xFLAG (human) [1]) of 5 peptides, a DMSO unique (peptide count) (RBM39-3xFLAG (human) [1]) of 4 peptides and an indisulam total (peptide count) (RBM39-3xFLAG (human) [2]) of 52 peptides. It also gave an indisulam unique (peptide count) (RBM39-3xFLAG (human) [2]) of 46 peptides.
With CUL4B (from UniProt Q13620 1-913) the DMSO total (peptide count) (RBM39-3xFLAG (human) [1]) was 0 peptides, the DMSO unique (peptide count) (RBM39-3xFLAG (human) [1]) was 0 peptides and the indisulam total (peptide count) (RBM39-3xFLAG (human) [2]) was 16 peptides. For the same substance, the indisulam unique (peptide count) (RBM39-3xFLAG (human) [2]) was 15 peptides.
PSMC5 (from UniProt P62195 2-406) was tested, and the DMSO total (peptide count) (RBM39-3xFLAG (human) [1]) was 0 peptides, the DMSO unique (peptide count) (RBM39-3xFLAG (human) [1]) was 0 peptides and the indisulam total (peptide count) (RBM39-3xFLAG (human) [2]) was 6 peptides. The indisulam unique (peptide count) (RBM39-3xFLAG (human) [2]) was 6 peptides.
PPM1B (from UniProt O75688 2-479) gave a DMSO total (peptide count) (RBM39-3xFLAG (human) [1]) of 0 peptides, a DMSO unique (peptide count) (RBM39-3xFLAG (human) [1]) of 0 peptides and an indisulam total (peptide count) (RBM39-3xFLAG (human) [2]) of 5 peptides. It also gave an indisulam unique (peptide count) (RBM39-3xFLAG (human) [2]) of 5 peptides.
For CUL4A (from UniProt Q13619 1-759), the DMSO total (peptide count) (RBM39-3xFLAG (human) [1]) was 1 peptides, the DMSO unique (peptide count) (RBM39-3xFLAG (human) [1]) was 1 peptides and the indisulam total (peptide count) (RBM39-3xFLAG (human) [2]) was 11 peptides. For the same substance, the indisulam unique (peptide count) (RBM39-3xFLAG (human) [2]) was 11 peptides.
